{"source": "patent US20100086958A1", "about": "“NOVEL ENZYME” (priority 2008, published 2010)", "molecules": {"B1": {"name": "PseFDH: FDH from Pseudomonas sp. 101, Seq ID No: 3 (protein, listed as Pseudomonas sp.)", "chain": "MAKVLCVLYDDPVDGYPKTYARDDLPKIDHYPGGQTLPTPKAIDFTPGQLLGSVSGELGLRKYLESNGHTLVVTSDKDGPDSVFERELVDADVVISQPFWPAYLTPERIAKAKNLKLALTAGIGSDHVDLQSAIDRNVTVAEVTYCNSISVAEHVVMMILSLVRNYLPSHEWARKGGWNIADCVSHAYDLEAMHVGTVAAGRIGLAVLRRLAPFDVHLHYTDRHRLPESVEKELNLTWHATREDMYPVCDVVTLNCPLHPETEHMINDETLKLFKRGAYIVNTARGKLCDRDAVARALESGRLAGYAGDVWFPQPAPKDHPWRTMPYNGMTPHISGTTLTAQARYAAGTR"}, "B2": {"name": "SceFDH: FDH from S. cerevisiae, Seq ID No: 4 (protein, listed as Saccharomyces cerevisiae)", "chain": "MSKGKVLLVLYEGGKHAEEQEKLLGCIENELGIRNFIEEQGYELVTTIDKDPEPTSTVDRELKDAEIVITTPFFPAYISRNRIAEAPNLKLCVTAGVGSDHVDLEAANERKITVTEVTGSNVVSVAEHVMATILVLIRNYNGGHQQAINGEWDIAGVAKNEYDLEDKIISTVGAGRIGYRVLERLVAFNPKKLLYYDYQELPAEAINRLNEASKLFNGRGDIVQRVEKLEDMVAQSDVVTINCPLHKDSRGLFNKKLISHMKDGAYLVNTARGAICVAEDVAEAVKSGKLAGYGGDVWDKQPAPKDHPWRTMDNKDHVGNAMTVHISGTSLDAQKRYAQGVKNILNSYFSKKFDYRPQDIIVQN"}, "B3": {"name": "CmetFDH: NADH-dependent wild-type FDH from Candida methylica, Seq ID No: 6 (protein, listed as Candida methylica)", "chain": "MKIVLVLYDAGKHAADEEKLYGCTENKLGIANWLKDQGHELITTSDKEGETSELDKHIPDADIIITTPFHPAYITKERLDKAKNLKSVVVAGVGSDHIDLDYINQTGKKISVLEVTGSNVVSVAEHVVMTMLVLVRNFVPAHEQIINHDWEVAAIAKDAYDIEGKTIATIGAGRIGYRVLERLLPFNPKELLYYDYQALPKEAEEKVGARRVENIEELVAQADIVTVNAPLHAGTKGLINKELLSKFKKGAWLVNTARGAICVAEDVAAALESGQLRGYGGDVWFPQPAPKDHPWRDMRNKYGAGNAMTPHYSGTTLDAQTRYAEGTKNILESFFTGKFDYRPQDIILLNGEYVTKAYGKHDKK"}, "B4": {"name": "C. bodinii D195S: D195S mutant of C. bodinii FDH (protein, UniProt O13437 1-364, looked up, variant D195S)", "Formate dehydrogenase": "B3 chain with S87L, D195S"}, "B5": {"name": "C. bodinii D195S/Y196H: D195S/Y196H mutant of C. bodinii FDH (protein, UniProt O13437 1-364, looked up, variant D195S Y196H)", "Formate dehydrogenase": "B3 chain with S87L, D195S, Y196H"}, "B6": {"name": "C. bodinii D195S/Y196H/K356T: D195S/Y196H/K356T mutant of C. bodinii FDH (protein, UniProt O13437 1-364, looked up, variant D195S Y196H K356T)", "Formate dehydrogenase": "B3 chain with S87L, D195S, Y196H, K356T"}, "B7": {"name": "D197A/Y198R SceFDH: D197A/Y198R mutant of S. cerevisiae FDH, data from Serov et al. (2002) (protein, UniProt Q08911 1-376, looked up, variant D197A Y198R)", "Formate dehydrogenase 1": "MSKGKVLLVLYEGGKHAEEQEKLLGCIENELGIRNFIEEQGYELVTTIDKDPEPTSTVDRELKDAEIVITTPFFPAYISRNRIAEAPNLKLCVTAGVGSDHVDLEAANERKITVTEVTGSNVVSVAEHVMATILVLIRNYNGGHQQAINGEWDIAGVAKNEYDLEDKIISTVGAGRIGYRVLERLVAFNPKKLLYYARQELPAEAINRLNEASKLFNGRGDIVQRVEKLEDMVAQSDVVTINCPLHKDSRGLFNKKLISHMKDGAYLVNTARGAICVAEDVAEAVKSGKLAGYGGDVWDKQPAPKDHPWRTMDNKDHVGNAMTVHISGTSLDAQKRYAQGVKNILNSYFSKKFDYRPQDIIVQNGSYATRAYGQKK"}}, "key": {"[1]": {"conditions": "cited from earlier work; for Km: read-out: Km NAD^+"}, "[2]": {"conditions": "cited from earlier work; for activity with NAD^+ / activity with NADP^+: unit = μmol formate oxidized per min, literature"}, "[3]": {"test": "Steady state kinetics for NAD^+ (FDH-catalysed formate oxidation)", "assay_type": "biochemical", "procedure": "(§1) BcenFDH1 (Bsp184FDH) and BspFDH2 (Bsp383FDH) catalyzed oxidation of formate to CO2 was monitored by UV/Vis spectrophotometry in a 96-well plate format. A series of eight solutions of formate (0-200 mM) were prepared by successive dilutions of a stock solution of 0.5 M sodium formate in 0.1 M sodium phosphate buffer, pH 7.0. From this series, 170 μL was transferred into wells of the 96-well plate. 10 μL of the FDHs from a stock solution (64.1 μM for BcenFDH1 (Bsp184FDH) and 78.0 μM for BspFDH2 (Bsp383FDH)) were added into each well and equilibrated for 3 min at 30° C. The reaction was initiated by addition of 20 μL of NAD^+ or NADP^+ solution from a freshly prepared stock (10 mM) using an 8-channel pipette. The plate was then immediately placed into the plate reader. The plate was shaken for 5 s to ensure thorough mixing, and then time-based measurements were recorded every 15 s for 10 min. The rate of formate oxidation was calculated using an extinction coefficient of 3.38 mM^−1 (for 200 μL), which was determined using NADH standards. Km and Vmax values were obtained by non-linear regression to the Michaelis-Menten equation (Eq.1 below) using Origin v7 (Microcal Software Inc.).\n(§2) Similar procedure were used for determination of Michaelis-Menten parameters for NAD^+ and NADP^+. A series of eight solutions of cofactor (0-75 mM) were prepared by successive dilutions of stock solutions. […] of sodium formate solutions (180 mM in well) were transferred into wells of the 96-well plate. 10 μL of the FDHs from a stock solution (64.1 μM for BcenFDH1 (Bsp184FDH) and 78.0 μM for BspFDH2 (Bsp383FDH)) were added into each well and equilibrated for 3 min at 30° C. The reaction was initiated by addition of 20 μL of NAD^+ or NADP^+ solutions using an 8-channel pipette. The plate was then immediately placed into the plate reader. The plate was shaken for 5 s to ensure thorough mixing, and then time-based measurements were recorded every 15 s for 10 min. The rate of formate oxidation was calculated using an extinction coefficient of 3.38 mM^−1 (for 200 μL), which was determined using NADH standards. Km and Vmax values were obtained by non-linear regression to the Michaelis-Menten equation as before."}, "[4]": {"test": "Steady state kinetics for formate oxidation", "assay_type": "biochemical", "conditions": "formate oxidation with NAD^+", "procedure": "as §1"}, "[5]": {"test": "Steady state kinetics for NADP^+ (FDH-catalysed formate oxidation)", "assay_type": "biochemical", "conditions": "cofactor NADP^+, 0.18M formate", "procedure": "as §1, §2"}, "[6]": {"conditions": "Serov et al. (2002), cited from earlier work; for Km: read-out: Km NADP^+"}, "[7]": {"conditions": "0.25 M formate, Serov et al. (2002)"}, "[8]": {"conditions": "0.5 M formate, Serov et al. (2002)"}}, "note": "Numbering of substitutions follows the chain as printed. Names and notes keep the numbering of the source. Where two headings read alike, the source gives them in different places."}
{"molecule": "B1", "values": [{"measurement": "kcat NAD^+", "setting": "[1]; data from Serov et al. (2002)", "value": "10.0 ± 0.6", "unit": "s⁻¹"}, {"measurement": "Km", "setting": "[1]; data from Serov et al. (2002)", "value": "0.06 ± 0.005", "unit": "mM"}, {"measurement": "formate oxidation, times more effectively with NAD^+ than with NADP^+", "setting": "[2]; Tishkov et al. (1991)", "value": 2400, "unit": "times"}, {"measurement": "activity with NAD^+", "setting": "[2]", "value": "6-8 U/mg"}]}
{"molecule": "B2", "values": [{"measurement": "kcat NAD^+", "setting": "[1]; data from Serov et al. (2002)", "value": "6.5 ± 0.4", "unit": "s⁻¹"}, {"measurement": "Km", "setting": "[1]; data from Serov et al. (2002)", "value": "0.036 ± 0.005", "unit": "mM"}]}
{"molecule": "B3", "values": [{"measurement": "formate oxidation, times more effective with NAD^+ than with NADP^+", "setting": "[3]", "value": "1.7×10^4 times"}, {"measurement": "Km", "setting": "[3]; cofactor NAD^+, 0.18M formate", "value": 0.2, "unit": "mM"}, {"measurement": "kcat NAD^+", "setting": "[3]; cofactor NAD^+, 0.18M formate", "value": "1.67 ± 0.033", "unit": "s⁻¹"}, {"measurement": "Km", "setting": "[4]", "value": "8.29 ± 1", "unit": "mM"}, {"measurement": "kcat", "setting": "[4]", "value": "6.9875 ± 0.2928", "unit": "s⁻¹"}, {"measurement": "Km", "setting": "[5]", "value": "7 ± 1.4", "unit": "mM"}, {"measurement": "kcat NADP^+", "setting": "[5]", "value": "0.005 ± 0", "unit": "s⁻¹"}]}
{"molecule": "B4", "values": [{"measurement": "activity with NADP^+", "setting": "[2]", "value": 0.083, "unit": "U/mg"}, {"measurement": "activity with NAD^+", "setting": "[2]", "value": 1.5, "unit": "U/mg"}]}
{"molecule": "B5", "values": [{"measurement": "activity with NADP^+", "setting": "[2]", "value": 0.19, "unit": "U/mg"}, {"measurement": "activity with NAD^+", "setting": "[2]", "value": 1.3, "unit": "U/mg"}]}
{"molecule": "B6", "values": [{"measurement": "activity with NADP^+", "setting": "[2]", "value": 0.36, "unit": "U/mg"}, {"measurement": "activity with NAD^+", "setting": "[2]", "value": 1.3, "unit": "U/mg"}]}
{"molecule": "B7", "values": [{"measurement": "kcat NAD^+", "setting": "[1]; [7]", "value": "0.095 ± 0.01", "unit": "s⁻¹"}, {"measurement": "Km", "setting": "[1]; [7]", "value": "7.6 ± 0.8", "unit": "mM"}, {"measurement": "kcat NAD^+", "setting": "[1]; [8]", "value": "0.12 ± 0.02", "unit": "s⁻¹"}, {"measurement": "Km", "setting": "[1]; [8]", "value": "8.4 ± 0.9", "unit": "mM"}, {"measurement": "kcat NADP^+", "setting": "[6]; 0.25 M formate", "value": "0.13 ± 0.01", "unit": "s⁻¹"}, {"measurement": "Km", "setting": "[6]; 0.25 M formate", "value": "4.5 ± 0.5", "unit": "mM"}, {"measurement": "kcat NADP^+", "setting": "[6]; 0.5 M formate", "value": "0.16 ± 0.02", "unit": "s⁻¹"}, {"measurement": "Km", "setting": "[6]; 0.5 M formate", "value": "7.6 ± 0.9", "unit": "mM"}]}
